Consider 19 molecules from patent US20240197834A1 (HANMI PHARM, published 2024).

Square brackets hold non-standard residues; d marks the D form. Ends that are not written are not given here. Aib = CC(C)(N)C(=O)O

The test has as its target glucagon receptor. The test is described as follows: cell-based or functional assay.

B1: glucagon derivative of SEQ ID NO: 4 (peptide)
peptide: HSQGTFTSDYSKYLDSCDAQDFVQWLMNT
With B1, the “In vitro activity (Relative Activity to SEQ ID NO: 1, %)” value is < 0.1%.

B2: glucagon derivative of SEQ ID NO: 42 (peptide)
peptide: Y[Aib]QGTFCSDYSKYLDSRRAQDFVQWLMNT
Consider B2, for which the “In vitro activity (Relative Activity to SEQ ID NO: 1, %)” value is 37.9%.

B3: glucagon derivative of SEQ ID NO: 5 (peptide)
peptide: HSQGTFTSDYSKYLDSCEAQDFVQWLMNT
Consider B3, for which the “In vitro activity (Relative Activity to SEQ ID NO: 1, %)” value came to 0.3%.

B4: glucagon derivative of SEQ ID NO: 3 (peptide)
peptide: HSQGTFTSDYSKYLDCERAQDFVQWLMNT
As to B4, the “In vitro activity (Relative Activity to SEQ ID NO: 1, %)” value came to 6.1%.

B5: glucagon derivative of SEQ ID NO: 2 (peptide)
peptide: HSQGTFTSDYSKYLDCDRAQDFVQWLMNT
B5: the “In vitro activity (Relative Activity to SEQ ID NO: 1, %)” value worked out at 0.6%.

B6: glucagon derivative of SEQ ID NO: 10 (peptide)
peptide: Y[Aib]QGTFTSDYSKYLDSCDADDFVVWLINT
For B6, the “In vitro activity (Relative Activity to SEQ ID NO: 1, %)” value is < 0.1%.

B7: glucagon derivative of SEQ ID NO: 13 (peptide)
peptide: Y[Aib]QGTFTSDYSCYLDSRRAQDFVQWLMNT
Consider B7, for which the “In vitro activity (Relative Activity to SEQ ID NO: 1, %)” value came out at 5.2%.

B8: glucagon derivative of SEQ ID NO: 7 (peptide)
peptide: YSQGTFTSDYSKYLDSCEADDFVQWLMNT
Consider B8, for which the “In vitro activity (Relative Activity to SEQ ID NO: 1, %)” value was < 0.1%.

B9: glucagon derivative of SEQ ID NO: 18 (peptide)
peptide: Y[Aib]QGTFTSDYSKYLDSRRACDFRLWLMNT
For the molecule B9, the “In vitro activity (Relative Activity to SEQ ID NO: 1, %)” value was < 0.1%.

B10: glucagon derivative of SEQ ID NO: 6 (peptide)
peptide: HSQGTFTSDYSKYLDSCEADDFVQWLMNT
For the molecule B10, the “In vitro activity (Relative Activity to SEQ ID NO: 1, %)” value was < 0.1%.

B11: glucagon derivative of SEQ ID NO: 11 (peptide)
peptide: Y[Aib]QGTFTSDYSKYLDEKCAKEFVQWLMNT
On to B11, for which the “In vitro activity (Relative Activity to SEQ ID NO: 1, %)” value is 4.6%.

B12: glucagon derivative of SEQ ID NO: 16 (peptide)
peptide: Y[Aib]QGTFTSDYSKYLDCRRAQVFVQWLMRT
B12: the “In vitro activity (Relative Activity to SEQ ID NO: 1, %)” value was 4.2%.

B13: glucagon derivative of SEQ ID NO: 33 (peptide)
peptide: YXQGTFTSDYSKYLDSRRAQDFVQWLMNT
modifications: aminoisobutyric acid (Aib) at position 2 (printed X)
Regarding B13, the “In vitro activity (Relative Activity to SEQ ID NO: 1, %)” value was 108%.

B14: glucagon derivative of SEQ ID NO: 45 (peptide)
peptide: Y[Aib]QGTFTSDYSCYLDEKRAKEFVQWLMNT
For B14, the “In vitro activity (Relative Activity to SEQ ID NO: 1, %)” value turned out to be 5.2%.

B15: glucagon derivative of SEQ ID NO: 17 (peptide)
peptide: Y[Aib]QGTFTSDYSKYLDCVRAQDFVQWLMRT
Consider B15, for which the “In vitro activity (Relative Activity to SEQ ID NO: 1, %)” value was determined as 23.2%.

B16: glucagon derivative of SEQ ID NO: 44 (peptide)
peptide: YXQGTFTSDYSKYLDSRRAQDFVQWLMNTC
modifications: aminoisobutyric acid (Aib) at position 2 (printed X)
As to B16, the “In vitro activity (Relative Activity to SEQ ID NO: 1, %)” value was 75.4%.

B17: glucagon derivative of SEQ ID NO: 14 (peptide)
peptide: Y[Aib]QGTFTSDYSKYLDCKRAKEFVQWLMNT
In the case of B17, the “In vitro activity (Relative Activity to SEQ ID NO: 1, %)” value stood at 18.1%.

B18: glucagon derivative of SEQ ID NO: 43 (peptide)
peptide: Y[Aib]QGTFTSDCSKYLDSRRAQDFVQWLMNT
For B18, the “In vitro activity (Relative Activity to SEQ ID NO: 1, %)” value amounted to 1.6%.

B19: glucagon derivative of SEQ ID NO: 15 (peptide)
peptide: Y[Aib]QGTFTSDYSKYLCEKRAQDFVVWLMNT
On to B19, for which the “In vitro activity (Relative Activity to SEQ ID NO: 1, %)” value stood at 1.1%.
